Reference: patent US20100291705A1, “ANTIGEN EXPOSING MICELLE AND UNORDERED AGGREGATE” (EURO-DIAGNOSTICA AB, priority 2007, published 2010)

Target: T1, (Homo sapiens, UniProt P02749)
T1 sequence (P02749 20-345): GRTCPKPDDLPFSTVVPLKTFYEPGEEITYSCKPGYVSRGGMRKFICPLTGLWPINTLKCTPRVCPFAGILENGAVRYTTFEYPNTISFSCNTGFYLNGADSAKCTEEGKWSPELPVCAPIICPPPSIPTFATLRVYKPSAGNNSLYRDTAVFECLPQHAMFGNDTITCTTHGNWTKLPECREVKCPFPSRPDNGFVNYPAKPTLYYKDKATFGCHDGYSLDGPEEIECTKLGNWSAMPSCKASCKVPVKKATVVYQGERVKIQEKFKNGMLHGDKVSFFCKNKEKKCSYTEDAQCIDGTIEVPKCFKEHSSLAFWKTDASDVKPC
Test: Detection of β2-GPI associated to the cardiolipin aggregates with mouse IgG anti-β2-GPI antibody (ELISA)
Assay type: binding
Details: after washing with 0.05% Tween-20 in PBS
Protocol: Antigen exposing lipid aggregates were prepared according to example 2 by mixing 90% cardiolipin with 10% PE-bio. The lipid aggregates were then adsorbed on a 96-well streptavidin coated ELISA plate (Eurodiagnostica AB) at concentration 90 μg/ml. The plate was incubated for 1 h at room temperature. The plate was washed three times with 0.05% Tween-20 in PBS and then incubated with or without β2-GPI for 30 minutes.
To determine the amount β2-GPI bound to cardiolipin aggregates a mouse IgG anti-β2-GPI antibody was used. This antibody was detected with an alkaline phosphatase conjugated anti-mouse IgG antibody (Sigma-Aldrich).
All the antibodies were diluted in PBS with 1% BSA and incubated for 1 h at RT. The plate was developed with alkaline phosphatase yellow liquid system for ELISA (Sigma-Aldrich) and absorbance 405 nm determined after 10-30 min. Between each incubation step the plate was washed three times with 0.05% Tween-20 in PBS.

B1: β2-GPI: protein incubated with bound cardiolipin aggregates to form the cardiolipin-β2-GPI complex (protein, UniProt P02749 20-345, looked up)
Beta-2-glycoprotein 1: T1 sequence (P02749 20-345)
β2-GPI bound to cardiolipin aggregates (FIG. 8): remained associated with cardiolipin after washing with 0.05% Tween-20 in PBS
